B1: human soluble ULBP6 haplotype 02 (hULBP6_02) (ligand)
chain: RRDDPHSLCYDITVIPKFRPGPRWCAVQGQVDEKTFLHYDCGNKTVTPVSPLGKKLNVTTAWKAQNPVLREVVDILTEQLLDIQLENYTPKEPLTLQARMSCEQKAEGHSSGSWQFSIDGQTFLLFDSEKRMWTTVHPGARKMKEKWENDKDVAMSFHYISMGDCIGWLEDFLMGMDSTLEPSAGAPLAMSSG
notes: also called sULBP6_02
B2: human soluble ULBP6 haplotype 01 (hULBP6_01) (ligand)
chain: GRDDPHSLCYDITVIPKFRPGPRWCAVQGQVDEKTFLHYDCGNKTVTPVSPLGKKLNVTTAWKAQNPVLREVVDILTEQLRDIQLENYTPKEPLTLQARMSCEQKAEGHSSGSWQFSIDGQIFLLFDSEKRMWTTVHPGARKMKEKWENDKDVAMSFHYISMGDCIGWLEDFLMGMDSTLEPSAGAPLAMSSG
notes: also called sULBP6_01

How the values were obtained:
[1] = biological target: B1; assay: cell-based or functional assay
[2] = biological target: B1; assay: blocking ELISA; hNKG2D coated, antibody titrated with biotinylated hULBP6_02
[3] = biological target: B1; assay: blocking ELISA; hNKG2D coated, antibody titrated with biotinylated hULBP6_02; hNKG2D-hULBP6_02 interaction; value of the running text
[4] = biological target: B2; assay: blocking ELISA; hNKG2D coated, antibody titrated with biotinylated hULBP6_01
[5] = biological target: B2; assay: blocking ELISA; hNKG2D coated, antibody titrated with biotinylated hULBP6_01; hNKG2D-hULBP6_01 interaction; value of the running text
[6] = biological target: B1; assay: SPR (BIACORE);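 further: soluble human and cynomolgus NKG2D ligands injected as analytes in 3-fold dilution series spanning 0.01 to 50 nM at 37 °C, reference-subtracted sensorgrams fitted to a 1:1 Langmuir model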
[7] = biological target: T1, human soluble ULBP2 (hULBP2) (human, UniProt Q9BZM5 26-216); assay: SPR (BIACORE);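 further: soluble human and cynomolgus NKG2D ligands injected as analytes in 3-fold dilution series spanning 0.01 to 50 nM at 37 °C, reference-subtracted sensorgrams fitted to a 1:1 Langmuir model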
T1 construct: also called sULBP2
T1 sequence: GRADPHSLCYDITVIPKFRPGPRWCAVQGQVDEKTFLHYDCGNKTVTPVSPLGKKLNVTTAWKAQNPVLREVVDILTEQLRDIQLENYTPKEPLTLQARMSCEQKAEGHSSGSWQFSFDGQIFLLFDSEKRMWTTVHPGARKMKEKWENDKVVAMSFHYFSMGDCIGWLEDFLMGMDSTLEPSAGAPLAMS

[8] = biological target: T2, human soluble ULBP5 (hULBP5) (human, UniProt Q6H3X3 26-218); assay: SPR (BIACORE);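 further: soluble human and cynomolgus NKG2D ligands injected as analytes in 3-fold dilution series spanning 0.01 to 50 nM at 37 °C, reference-subtracted sensorgrams fitted to a 1:1 Langmuir model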
T2 construct: also called sULBP5
T2 sequence: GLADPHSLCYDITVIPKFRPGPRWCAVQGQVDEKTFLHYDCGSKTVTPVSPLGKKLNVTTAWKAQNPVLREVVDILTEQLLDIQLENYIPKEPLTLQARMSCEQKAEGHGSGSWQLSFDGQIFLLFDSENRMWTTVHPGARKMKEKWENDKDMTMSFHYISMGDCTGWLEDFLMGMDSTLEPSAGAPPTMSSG

[9] = biological target: T3, cynomolgus soluble ULBP5 (cULBP5) (cynomolgus); assay: SPR (BIACORE);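 further: soluble human and cynomolgus NKG2D ligands injected as analytes in 3-fold dilution series spanning 0.01 to 50 nM at 37 °C, reference-subtracted sensorgrams fitted to a 1:1 Langmuir model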
T3 construct: also called Cyno-cULBP5
T3 chain: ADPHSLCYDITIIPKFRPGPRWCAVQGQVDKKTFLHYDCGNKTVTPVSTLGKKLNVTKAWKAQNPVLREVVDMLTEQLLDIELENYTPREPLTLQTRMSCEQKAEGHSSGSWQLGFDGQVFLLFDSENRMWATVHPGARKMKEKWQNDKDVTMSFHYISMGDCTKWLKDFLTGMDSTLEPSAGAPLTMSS

[10] = biological target: B2; assay: SPR (BIACORE)
[11] = biological target: T4, cynomolgus soluble ULBP2/6 (cULBP2/6) (cynomolgus, UniProt Q5VY80 28-217 (human entry), limits assumed); assay: SPR (BIACORE)
T4 construct: also called cyno ULBP6; Cyno-cULBP2/6
T4 chain: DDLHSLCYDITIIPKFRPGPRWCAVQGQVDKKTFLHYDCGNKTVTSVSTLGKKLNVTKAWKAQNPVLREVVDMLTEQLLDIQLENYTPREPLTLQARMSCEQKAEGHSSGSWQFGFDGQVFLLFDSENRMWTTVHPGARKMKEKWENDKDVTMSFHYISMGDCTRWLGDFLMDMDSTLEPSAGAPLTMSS

[12] = biological target: hNKG2D-Fc (human NKG2D 78-216 with C-terminal long huFc-Flag tag) (human); assay: SPR (BIACORE 8K, 37 C); hNKG2D-Fc captured on Protein A, soluble ligand injected
[13] = biological target: T5, NKG2D on cells (NKG2D expressing cells, primed PBMCs) (UniProt P26718 1-216); assay: competition with anti-NKG2D mAb on NKG2D expressing cells (data not shown)
T5 construct: whole, on cells; also called cell surface NKG2D
T5 sequence (looked up): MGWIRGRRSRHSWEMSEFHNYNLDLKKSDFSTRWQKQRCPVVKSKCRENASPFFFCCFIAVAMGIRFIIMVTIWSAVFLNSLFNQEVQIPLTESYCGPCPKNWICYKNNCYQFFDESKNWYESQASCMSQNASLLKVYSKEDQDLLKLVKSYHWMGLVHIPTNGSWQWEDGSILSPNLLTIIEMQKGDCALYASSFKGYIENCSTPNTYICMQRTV

[14] = biological target: T4, cynomolgus soluble ULBP2/6 (cULBP2/6); assay: BLI (OCTET), mouse antibody captured from hybridoma supernatant on AMC biosensor, 300 nM cULBP2/6

hNKG2D-Fc (human NKG2D 78-216 with C-terminal long huFc-Flag tag) (human), sequence (chain, as listed by the source limits assumed): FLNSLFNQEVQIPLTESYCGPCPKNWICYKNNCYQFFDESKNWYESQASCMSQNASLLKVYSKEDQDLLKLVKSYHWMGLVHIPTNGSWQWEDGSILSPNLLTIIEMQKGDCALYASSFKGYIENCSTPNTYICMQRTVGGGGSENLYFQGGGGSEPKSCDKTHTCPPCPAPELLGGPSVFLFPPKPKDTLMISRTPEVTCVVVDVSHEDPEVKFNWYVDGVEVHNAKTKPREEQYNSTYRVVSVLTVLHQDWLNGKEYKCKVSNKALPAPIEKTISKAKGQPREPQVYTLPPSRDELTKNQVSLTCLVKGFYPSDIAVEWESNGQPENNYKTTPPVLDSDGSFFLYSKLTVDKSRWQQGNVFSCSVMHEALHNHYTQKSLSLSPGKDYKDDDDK

Binder	EC50 (read off the curve); NKG2D MFI on primed PBMCs of donor 1307 with 50 nM sULBP6_02 [1] [nM]	IC50 [2] [nM]	IC50 [3] [nM]	IC50 [4] [nM]	IC50 [5] [nM]	Kd [6] [nM]	Kd [7] [nM]	Kd [8] [nM]	Kd [9] [nM]	Kd [10] [nM]	Kd [11] [nM]	Kd [12] [nM]	binding result [13]	binding result [14]
Humanized 8E11 (h8E11) (E-) (antibody, human IgG1, kappa, N297G, V domains shown, hIgG1 with N297G (effector negative)) VH: EVQLVESGGGLVQPGGSLRLSCAASGFTFRTYGMHWVRQAPGKGLEWVAYISSGSGTIDYADTVKGRFTISRDNAKNSLYLQMNSLRAEDTAVYYCTRQTGAMDYWGQGTLVTVSS VL: EIVLTQSPATLSLSPGERATLSCSASSSVSYMNWYQQKPGQSPRLWIYGISNLASGVPARFSGSGSGTDFTLTISSLEPEDFAVYYCQQRSSHPLTFGGGTKVEIKR	~20	0.035	1.59	5.06	4.32	0.28	0.5	1.76	23.1	0.27	2.06	–	–	–
Humanized 7B3 (h7B3) (E-) (antibody, human IgG1, kappa, N297G, V domains shown, hIgG1 with N297G (effector negative)) VH: EVQLVESGGGLVQPGGSLRLSCAASGFTFSTYGFHWVRQAPGKGLEWVAYISSNSGTIDYADTVKGRFTISRDNAKNSLYLQMNSLRAEDTAVYYCARQGYGFDNWGQGTTVTVSS VL: DIQLTQSPSSLSASVGDRVTITCSASSRVSYMNWYQQKPGKSPKIWVYGISNLASGVPSRFSGSGSGTDFTFTISSLQPEDIATYYCQQRSSHPLTFGGGTKVEIKR	~20	0.028	1.52	4.48	4.47	0.2	0.54	2.39	7.67	0.22	0.48	–	–	–
B1	–	–	–	–	–	–	–	–	–	–	–	4.8	binds	–
B2	–	–	–	–	–	–	–	–	–	–	–	41	binds	–
7B3 (mouse hybridoma clone) (antibody, V domains shown, Tested as hybridoma culture supernatant; also called mAb 7B3) VH: DVQLVESGGGLVKPGGSRKLSCAASGFTFSTYGFHWVRQVPEKGLEWVAYISSNSGTIDYADTVKGRFTISRDNAKNTLFLQMTSLRSEDTAMYYCARQGYGFDNWGQGTTLTVSS VL: EILLTQSPAIIAASPGEKVTITCSASSRVSYMNWYQQKPGSSPKIWVYGISNLASGVPARFSGSGSGTSFSFTINSMEAEDVATYYCQQRSSHPLTFGAGTKLELK	–	–	–	–	–	–	–	–	–	–	–	–	–	binds
8E11 (mouse hybridoma clone) (antibody, V domains shown, Tested as hybridoma culture supernatant) VH: DVQLVESGGGLVQPGGSRKLSCAASGFTFRTYGMHWVRQAPEKGLEWVAYISSGSGTIDYADTVKGRFTISRDNAKNTLFLQMTSLRSEDTAMYYCTRQTGAMDYWGQGTSVTVSS VL: EILLTQSPAIIAASPGEKVTITCSASSSVSYMNWYQQKPGSSPKLWIYGISNLASGVPARFSGSGSGTSFSFTINSMEAEDVATYYCQQRSSHPLTFGAGTKLELK	–	–	–	–	–	–	–	–	–	–	–	–	–	binds
